Measurements taken from patent publication US20160272683A1 (Novo Nordisk, published 2016).
Numbered stars: 1 amine (or outer) side, 2 acyl side, 3 side chain; on linkers, the order of the positions; unused ones are H or OH. Ends that are not written are not given here. * marks the point of attachment. C20 diacid = O=C(O)CCCCCCCCCCCCCCCCCCC(=O)*; C18 diacid = O=C(O)CCCCCCCCCCCCCCCCC(=O)*; γGlu = O=C(O)[C@H](CCC(=O)[*:2])N[*:1]

T1: human amylin receptor (amylin 3(a) receptor: human calcitonin receptor with RAMP-3) (human, UniProt P30988 25-474; O60896 24-148, limits assumed)
T1 construct: whole, on cells; Assay V: membranes of the Amylin 3(a)/CRE-luc BHK cells on SPA beads; also called hAmylin-R
T1 sequence (looked up) 1: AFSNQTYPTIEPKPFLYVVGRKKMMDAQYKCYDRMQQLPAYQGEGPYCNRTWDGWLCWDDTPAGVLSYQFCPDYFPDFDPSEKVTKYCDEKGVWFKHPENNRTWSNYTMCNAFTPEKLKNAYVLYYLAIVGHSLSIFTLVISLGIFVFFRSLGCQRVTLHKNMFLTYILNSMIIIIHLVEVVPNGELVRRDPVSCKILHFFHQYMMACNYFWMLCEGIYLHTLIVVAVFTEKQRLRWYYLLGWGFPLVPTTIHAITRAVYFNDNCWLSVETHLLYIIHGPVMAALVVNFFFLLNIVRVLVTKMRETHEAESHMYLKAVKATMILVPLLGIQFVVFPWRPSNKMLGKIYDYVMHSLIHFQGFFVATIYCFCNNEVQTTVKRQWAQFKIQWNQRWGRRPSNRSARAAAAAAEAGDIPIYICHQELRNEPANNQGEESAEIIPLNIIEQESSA
T1 sequence (looked up) 2: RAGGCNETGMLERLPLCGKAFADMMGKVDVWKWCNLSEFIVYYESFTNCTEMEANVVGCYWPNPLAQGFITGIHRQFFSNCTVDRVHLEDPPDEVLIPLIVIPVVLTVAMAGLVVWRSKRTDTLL

T2: human calcitonin receptor (human, UniProt P30988 25-474)
T2 construct: whole, on cells; Assay VII: membranes on SPA beads; also called hCT-R; hCTR
T2 sequence (looked up): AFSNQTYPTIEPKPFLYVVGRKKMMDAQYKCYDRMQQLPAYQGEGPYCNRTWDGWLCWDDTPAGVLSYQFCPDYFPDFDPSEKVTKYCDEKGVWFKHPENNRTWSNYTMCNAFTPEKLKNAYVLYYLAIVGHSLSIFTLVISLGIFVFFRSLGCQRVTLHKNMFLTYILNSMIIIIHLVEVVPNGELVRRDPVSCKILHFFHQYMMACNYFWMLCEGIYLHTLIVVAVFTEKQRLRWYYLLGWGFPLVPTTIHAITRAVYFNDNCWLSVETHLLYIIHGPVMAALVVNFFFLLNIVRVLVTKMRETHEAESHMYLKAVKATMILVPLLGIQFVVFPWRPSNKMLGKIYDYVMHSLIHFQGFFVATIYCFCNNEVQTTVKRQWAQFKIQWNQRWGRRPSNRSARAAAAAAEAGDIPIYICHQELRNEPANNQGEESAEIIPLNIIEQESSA

T3: human calcitonin receptor (human, UniProt P30988 25-474)
T3 construct: whole, on cells; also called hCT-R; hCTR
T3 sequence (looked up): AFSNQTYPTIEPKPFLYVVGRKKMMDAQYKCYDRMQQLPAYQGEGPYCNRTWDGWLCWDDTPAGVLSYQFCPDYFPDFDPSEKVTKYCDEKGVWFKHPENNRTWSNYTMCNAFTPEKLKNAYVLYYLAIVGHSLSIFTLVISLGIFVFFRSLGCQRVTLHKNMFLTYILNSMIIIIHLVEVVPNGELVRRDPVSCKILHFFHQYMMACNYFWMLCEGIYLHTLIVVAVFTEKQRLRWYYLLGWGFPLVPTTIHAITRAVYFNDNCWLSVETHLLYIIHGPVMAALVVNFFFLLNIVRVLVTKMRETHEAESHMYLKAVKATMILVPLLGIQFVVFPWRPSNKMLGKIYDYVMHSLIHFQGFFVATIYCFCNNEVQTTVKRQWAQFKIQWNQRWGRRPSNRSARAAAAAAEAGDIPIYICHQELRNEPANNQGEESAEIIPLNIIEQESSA


Tests used:
[1] = biological target: T1, human amylin receptor (amylin 3(a) …); assay: SPA competition vs 125I-rat amylin, membranes with human CTR + RAMP-3 (Assay V)
Method: The binding assay was performed using scintillation proximity assay (SPA) beads (RPNQ0001) from PerkinElmer and cell membranes from the Amylin 3(a)/CRE-luc cells (as described in Assay (II)) were used. Membranes were prepared in the following way; the cells were rinsed with PBS and incubated with Versene for approximately 5 min before harvesting. The cells were flushed with PBS and the cell-suspension was centrifuged for 5 min at 1000 rpm. […] The resulting pellet was resuspended in buffer 2 and protein concentration was tested (BCA protein Assay, Pierce). The homogenate was kept cold during the whole procedure. The membranes were kept at −80° C. until use. The assay was performed in a 384 well Optiplate (PerkinElmer) in a total volume of 40 ul. Membranes were mixed with SPA beads. Final concentration of membranes 35 ng/μL final and SPA beads was 0.05 mg/well. Test-compounds were dissolved in DMSO and further diluted in assay buffer (50 mM Hepes, pH 7.4, 1 mM CaCl2, 5 mM MgCl2, 0.1% OA and 0.02% Tween20). […] Samples were analyzed on TopCounter™ (Packard). The IC₅₀ was calculated using (one site binding competition analysis) GraphPad Prism5 as a measure of receptor affinity.

[2] = biological target: T2, human calcitonin receptor; assay: SPA competition vs 125I-calcitonin, membranes with human CTR (Assay VII)
Method: The binding assay was performed using scintillation proximity assay (SPA) beads (RPNQ0001) from PerkinElmer® and cell membranes prepared from a BHK tk'ts 13 cell line was stably transfected with the human calcitonin receptor and a CRE-responsive luciferase reporter gene. Membranes were prepared in the following way; the cells were rinsed with PBS and incubated with Versene for approximately 5 min before harvesting. The cells were flushed with PBS and the cell-suspension was centrifuged for 5 min at 1000 rpm.
EDTA (pH 7.4, buffer 2). The resulting pellet was resuspended in buffer 2 and protein concentration was tested (BCA protein Assay, Pierce). The homogenate was kept cold during the whole procedure. The membranes were kept at −80° C. until use. Assay was performed in a 384 well Optiplate (PerkinElmer®) in a total volume of 40 ul. Membranes were mixed with SPA beads. Final concentration of membranes 35 ng/μL final and Final concentration of SPA beads was 0.05 mg/well. Test-compounds were dissolved in DMSO and further diluted in assay buffer (50 mM Hepes, pH 7.4, 1 mM CaCl2, 5 mM MgCl2, 0.1% OA and 0.02% Tween20). […] Samples were analyzed on TopCounter™ (Packard). The IC₅₀ was calculated using (one site binding competition analysis) GraphPad Prism5 as a measure of receptor affinity.

[3] = biological target: T3, human calcitonin receptor; assay: whole-cell competition vs 125I-human calcitonin (Assay VIIa)
Outline: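 BHK tk'ts 13 cells stably co-expressing human calcitonin receptor and a CRE-luciferase reporter, seeded overnight at 37 °C. Bound tracer counted by scintillation after cold HBSS washes and NaOH/SDS lysis; IC₅₀ from one-site competition fit taken as receptor affinity.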

Row | IC50 [1] | IC50 [2] | IC50 [3] | Binder
1 | 0.159 nM | 0.154 nM | – | {C20 diacid-γGlu}-ASELSTATLGRLSAELHELSTYPRTETGSGSY-NH2 (SMILES CC(C)C[C@H](NC(=O)[C@H](CCCNC(=N)N)NC(=O)CNC(=O)[C@H](CC(C)C)NC(=O)[C@@H](NC(=O)[C@H](C)NC(=O)[C@@H](NC(=O)[C@H](CO)NC(=O)[C@H](CC(C)C)NC(=O)[C@H](CCC(=O)O)NC(=O)[C@H](CO)NC(=O)[C@H](C)NC(=O)CC[C@H](NC(=O)CCCCCCCCCCCCCCCCCCC(=O)O)C(=O)O)[C@@H](C)O)[C@@H](C)O)C(=O)N[C@@H](CO)C(=O)N[C@@H](C)C(=O)N[C@@H](CCC(=O)O)C(=O)N[C@@H](CC(C)C)C(=O)N[C@@H](Cc1c[nH]cn1)C(=O)N[C@@H](CCC(=O)O)C(=O)N[C@@H](CC(C)C)C(=O)N[C@@H](CO)C(=O)N[C@H](C(=O)N[C@@H](Cc1ccc(O)cc1)C(=O)N1CCC[C@H]1C(=O)N[C@@H](CCCNC(=N)N)C(=O)N[C@H](C(=O)N[C@@H](CCC(=O)O)C(=O)N[C@H](C(=O)NCC(=O)N[C@@H](CO)C(=O)NCC(=O)N[C@@H](CO)C(=O)N[C@@H](Cc1ccc(O)cc1)C(N)=O)[C@@H](C)O)[C@@H](C)O)[C@@H](C)O, mimylin derivative; des1 = residue 1 deleted; also called Ex. #99; 99) [[N-terminal(C20 diacid-gGlu), des1, 9T, 21S, 23Y, 30S, 31G, 33Y]mimylin]
2 | – | – | 42.4 nM | {C18 diacid}-EASELSTAALGRLSAELHELATLPRTETGPESP-OH [[N-terminal(C18 diacid), C-terminal(-)]mimylin]
3 | – | – | 630 nM | EASELSTAALGRLSAELHELATLPRTETGPESP-OH (also called Ex. #135) [[C-terminal(-)]mimylin]
4 | – | – | 1.55 nM | {C20 diacid-γGlu}-ASQLSTAVLGRLSQRLHRLQTYPRTQTGSQTY-NH2 (SMILES CC(C)C[C@H](NC(=O)[C@H](CCCNC(=N)N)NC(=O)CNC(=O)[C@H](CC(C)C)NC(=O)[C@@H](NC(=O)[C@H](C)NC(=O)[C@@H](NC(=O)[C@H](CO)NC(=O)[C@H](CC(C)C)NC(=O)[C@H](CCC(N)=O)NC(=O)[C@H](CO)NC(=O)[C@H](C)NC(=O)CC[C@H](NC(=O)CCCCCCCCCCCCCCCCCCC(=O)O)C(=O)O)[C@@H](C)O)C(C)C)C(=O)N[C@@H](CO)C(=O)N[C@@H](CCC(N)=O)C(=O)N[C@@H](CCCNC(=N)N)C(=O)N[C@@H](CC(C)C)C(=O)N[C@@H](Cc1c[nH]cn1)C(=O)N[C@@H](CCCNC(=N)N)C(=O)N[C@@H](CC(C)C)C(=O)N[C@@H](CCC(N)=O)C(=O)N[C@H](C(=O)N[C@@H](Cc1ccc(O)cc1)C(=O)N1CCC[C@H]1C(=O)N[C@@H](CCCNC(=N)N)C(=O)N[C@H](C(=O)N[C@@H](CCC(N)=O)C(=O)N[C@H](C(=O)NCC(=O)N[C@@H](CO)C(=O)N[C@@H](CCC(N)=O)C(=O)N[C@H](C(=O)N[C@@H](Cc1ccc(O)cc1)C(N)=O)[C@@H](C)O)[C@@H](C)O)[C@@H](C)O)[C@@H](C)O, also called Ex. #132) [[N-terminal(C20 diacid-gGlu), des1, 4Q, 9V, 15Q, 16R, 19R, 21Q, 23Y, 27Q, 30S, 31Q, 32T, 33Y]mimylin]
5 | – | – | 9.66 nM | {C20 diacid-γGlu}-LSQLSTLVLGRLSQRLHRLQTYPRTQTGSQTY-NH2 (SMILES CC(C)C[C@H](NC(=O)CC[C@H](NC(=O)CCCCCCCCCCCCCCCCCCC(=O)O)C(=O)O)C(=O)N[C@@H](CO)C(=O)N[C@@H](CCC(N)=O)C(=O)N[C@@H](CC(C)C)C(=O)N[C@@H](CO)C(=O)N[C@H](C(=O)N[C@@H](CC(C)C)C(=O)N[C@H](C(=O)N[C@@H](CC(C)C)C(=O)NCC(=O)N[C@@H](CCCNC(=N)N)C(=O)N[C@@H](CC(C)C)C(=O)N[C@@H](CO)C(=O)N[C@@H](CCC(N)=O)C(=O)N[C@@H](CCCNC(=N)N)C(=O)N[C@@H](CC(C)C)C(=O)N[C@@H](Cc1c[nH]cn1)C(=O)N[C@@H](CCCNC(=N)N)C(=O)N[C@@H](CC(C)C)C(=O)N[C@@H](CCC(N)=O)C(=O)N[C@H](C(=O)N[C@@H](Cc1ccc(O)cc1)C(=O)N1CCC[C@H]1C(=O)N[C@@H](CCCNC(=N)N)C(=O)N[C@H](C(=O)N[C@@H](CCC(N)=O)C(=O)N[C@H](C(=O)NCC(=O)N[C@@H](CO)C(=O)N[C@@H](CCC(N)=O)C(=O)N[C@H](C(=O)N[C@@H](Cc1ccc(O)cc1)C(N)=O)[C@@H](C)O)[C@@H](C)O)[C@@H](C)O)[C@@H](C)O)C(C)C)[C@@H](C)O, also called Ex. #133)
